This assay has as its target T1, TNFR2 on human K562 chronic myeloid leukemia cells and on primary human Treg cells (human, UniProt P20333 23-461).
T1 construct: whole, on cells; also called K562 cells
T1 sequence (looked up): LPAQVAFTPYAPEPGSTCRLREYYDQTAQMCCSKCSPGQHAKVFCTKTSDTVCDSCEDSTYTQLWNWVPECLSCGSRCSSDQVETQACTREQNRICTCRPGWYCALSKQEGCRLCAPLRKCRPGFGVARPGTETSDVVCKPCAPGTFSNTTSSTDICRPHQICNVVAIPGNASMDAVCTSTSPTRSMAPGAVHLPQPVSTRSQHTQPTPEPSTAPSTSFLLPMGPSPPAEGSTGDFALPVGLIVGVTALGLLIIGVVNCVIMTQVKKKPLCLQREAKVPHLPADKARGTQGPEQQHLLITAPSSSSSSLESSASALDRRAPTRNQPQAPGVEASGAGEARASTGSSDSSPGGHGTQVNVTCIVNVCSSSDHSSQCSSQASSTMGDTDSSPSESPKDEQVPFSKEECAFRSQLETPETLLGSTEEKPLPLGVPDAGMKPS
As to the kind of experiment: flow cytometry on human K562 CML cells, MFI(FL2); unit taken from the axis Conc log(nM). Here is the method: Assay steps: The mixture was centrifuged at 400 g for 5 min, and the cell medium was removed. K562 or Treg cells were resuspended in PBS. After counting, the cells were adjusted to a density of 2×10⁶/mL, and the cell suspension was added to a U-bottom 96-well plate at 100 μL/well. The test antibody was added, subjected to a three-fold gradient dilution, and left to stand on ice for 30 min. The mixture was centrifuged at 300 g for 5 min, and the supernatant was removed. The cells were washed once with PBS. The mixture was centrifuged at 300 g for 5 min, and PBS was removed. 100 μL of PE-anti-human Fc antibody (SOUTHERN BIOTECH, 2040-09) diluted at a ratio of 1:200 was added to each well. The mixture was incubated on ice for 30 min in the dark. The mixture was centrifuged at 400 g for 5 min, and the supernatant was removed. The cells were washed twice with PBS. The cells were resuspended in 100 μL of PBS and assayed by using a flow cytometer (BD, ACCURIC6 plus).

B1: positive control antibody OPI (humanized antibody SBT-002e in WO 2017083525) (antibody, V domains shown)
VH: QVTLKESGPALVKPTQTLTLTCTFSGFSLSTSGMGVGWIRQPPGKALEWLAHIWWDDDKFYNPSLKSRLTISKDTSKNQVVLTMTNMDPVDTATYYCARLTGTRYFDYWGQGTTVTVSS
VL: DVQMTQSPSSLSASVGDRVTITCKASQDINKFIAWYQQKPGKAPKLLIHYTSTLQPGIPSRFSGSGSGRDYTFTISSLQPEDIATYYCLQYGNLWTFGGGTKVEIK
notes: also called Benchmark OPI
Regarding B1, a half-maximal effect (EC50) was put at 91.6 pM.

Usually EC50 stands for the concentration giving half of the maximal effect. High values mean lower potency in that assay, low ones higher potency in that assay.

These data come from US20240026019A1 (Innovent, published 2024).
